{"source": "paper PMC4339892", "about": "“Neuropilin 1 is an entry factor that promotes EBV infection of nasopharyngeal epithelial cells” (Nature Communications, 2015)", "binders": {"B1": {"name": "FLAG-gB^23–431 (EBV glycoprotein B residues 23-431, CendR motif exposed) (domain or fragment)", "chain": "QTPEQPAPPATTVQPTATRQQTSFPFRVCELSSHGDLFRFSSDIQCPSFGTRENHTEGLLMVFKDNIIPYSFKVRSYTKIVTNILIYNGWYADSVTNRHEEKFSVDSYETDQMDTIYQCYNAVKMTKDGLTRVYVDRDGVNITVNLKPTGGLANGVRRYASQTELYDAPGWLIWTYRTRTTVNCLITDMMAKSNSPFDFFVTTTGQTVEMSPFYDGKNKETFHERADSFHVRTNYKIVDYDNRGTNPQGERRAFLDKGTYTLSWKLENRTAYCPLQHWQTFDSTIATETGKSIHFVTDEGTSSFVTNTTVGIELPDAFKCIEEQVNKTMHEKYEAVQDRYTKGQEAITYFITSGGLLLAWLPLTPRSLATVKNLTELTTPTSSPPSSPSPPAPSAARGSTPAAVLRRRR", "notes": "Epstein-Barr virus glycoprotein B (gB), residues 23-431, amplified from the gB expression plasmid p2670; ends with the CendR motif 428-431 (furin cleavage site); Secreted into the supernatant; the signal peptide of the vector is not described; also called EBV-gB^23–431; pCEP-his-FLAG-gB^23–431; source: HEK-293FT, transfected, in lysate (co-IP; M2 beads for the pull-down)"}}, "key": {"[1]": {"target": "the molecule itself", "assay": "cross-linking; DSS cross-linking of gB-overexpressing cells, western blotting of the natural form of gB^23–431"}, "[2]": {"target": "T1, GST-NRP1^ABC (soluble extracellular ABC domain of NRP1) (human, UniProt O14786-1 30-862)", "T1 construct": "neuropilin 1 residues 30-862 (extracellular ABC domain), amplified from pMSCV-NRP1, in pGEX-6p-1; also called pGEX-NRP1^ABC; pGEX-GST-NRP1^ABC; source: E. coli Rosetta, purified (Glutathione agarose)", "T1 sequence": "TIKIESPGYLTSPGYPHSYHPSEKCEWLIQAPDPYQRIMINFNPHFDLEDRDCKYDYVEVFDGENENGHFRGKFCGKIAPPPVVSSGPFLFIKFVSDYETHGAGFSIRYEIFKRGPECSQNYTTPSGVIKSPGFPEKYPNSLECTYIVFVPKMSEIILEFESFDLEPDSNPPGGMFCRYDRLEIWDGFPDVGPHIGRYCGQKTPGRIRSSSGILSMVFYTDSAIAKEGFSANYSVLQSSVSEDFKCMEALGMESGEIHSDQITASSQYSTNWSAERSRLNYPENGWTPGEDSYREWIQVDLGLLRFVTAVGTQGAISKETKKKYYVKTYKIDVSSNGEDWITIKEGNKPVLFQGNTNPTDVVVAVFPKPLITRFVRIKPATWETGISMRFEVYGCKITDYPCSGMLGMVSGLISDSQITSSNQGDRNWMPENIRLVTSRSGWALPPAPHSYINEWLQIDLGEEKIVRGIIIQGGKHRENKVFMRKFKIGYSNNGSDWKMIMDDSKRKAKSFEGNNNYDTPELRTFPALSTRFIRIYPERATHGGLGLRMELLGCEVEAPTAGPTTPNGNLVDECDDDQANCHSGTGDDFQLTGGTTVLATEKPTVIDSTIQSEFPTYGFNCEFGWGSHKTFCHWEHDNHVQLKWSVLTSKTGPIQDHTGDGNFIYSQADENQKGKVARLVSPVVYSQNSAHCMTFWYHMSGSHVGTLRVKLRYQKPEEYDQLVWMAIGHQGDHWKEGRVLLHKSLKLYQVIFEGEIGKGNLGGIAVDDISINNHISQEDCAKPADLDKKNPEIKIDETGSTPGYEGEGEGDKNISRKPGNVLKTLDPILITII", "assay": "ELISA; plates coated with 200 ng purified FLAG-gB^23–431, various concentrations of GST-NRP1 or GST-NRP2 for 2 h at RT, rabbit anti-GST and HRP-conjugated secondary antibody; apparent affinity constant", "conditions": "both partners purified"}}, "data": [{"binder": "B1", "values": [{"measurement": "stoichiometry N", "setting": "[1]", "value": 3}, {"measurement": "binding result", "setting": "[2]", "value": "binds"}]}]}
